Experiments:
brox_human BROX [1] = biological target: brox_human BROX (UniProt Q5VW32)
brox_human BROX [2] = biological target: brox_human BROX (UniProt Q5VW32); remark: listed apart in the source

Sequence of brox_human BROX (Q5VW32 whole entry): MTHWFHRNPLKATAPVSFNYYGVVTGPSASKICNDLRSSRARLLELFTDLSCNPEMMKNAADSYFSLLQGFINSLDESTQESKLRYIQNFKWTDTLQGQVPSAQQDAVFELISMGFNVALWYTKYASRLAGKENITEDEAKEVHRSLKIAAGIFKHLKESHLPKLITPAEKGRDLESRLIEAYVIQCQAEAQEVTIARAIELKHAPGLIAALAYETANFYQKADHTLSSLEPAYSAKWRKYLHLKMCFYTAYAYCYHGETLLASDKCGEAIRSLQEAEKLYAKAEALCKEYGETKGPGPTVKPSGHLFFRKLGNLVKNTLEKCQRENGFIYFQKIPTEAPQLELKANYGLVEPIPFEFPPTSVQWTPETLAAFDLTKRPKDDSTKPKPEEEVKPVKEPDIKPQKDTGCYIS
Sequence of Charged multivesicular body protein 5 (Homo sapiens), Q9NZZ3-1 P214G (Q9NZZ3 whole entry P214G): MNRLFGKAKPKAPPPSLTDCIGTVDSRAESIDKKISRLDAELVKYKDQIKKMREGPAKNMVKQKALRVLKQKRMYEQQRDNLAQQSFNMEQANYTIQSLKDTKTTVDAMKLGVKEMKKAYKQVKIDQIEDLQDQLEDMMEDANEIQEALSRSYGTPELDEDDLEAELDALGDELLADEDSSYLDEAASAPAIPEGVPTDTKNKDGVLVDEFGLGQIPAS
Sequence of Charged multivesicular body protein 5 (Homo sapiens), Q9NZZ3-1 F211A (Q9NZZ3 whole entry F211A): as the sequence (Q9NZZ3 whole entry P214G) above, with F211A, G214P counted along it
Sequence of Charged multivesicular body protein 5 (Homo sapiens), Q9NZZ3-1 L213A (Q9NZZ3 whole entry L213A): as the sequence (Q9NZZ3 whole entry P214G) above, with L213A, G214P counted along it

effect of a mutation on the interaction (brox_human BROX [1])	effect of a mutation on the interaction (brox_human BROX [2])	Substance
decreasing interaction strength	disrupting interaction strength	Charged multivesicular body protein 5 (Homo sapiens), Q9NZZ3-1 F211A
disrupting interaction strength		Charged multivesicular body protein 5 (Homo sapiens), Q9NZZ3-1 L213A
decreasing interaction strength	disrupting interaction strength	Charged multivesicular body protein 5 (Homo sapiens), Q9NZZ3-1 P214G

From IntAct's records for PubMed 22484091
